The domain aggregation screens of Martell et al. (2025)

Test: soluble fraction after stress (log2 fold change); higher = more stays soluble; pooled small domains, quantitative proteomics
Conditions: stress: pH 4
Method in brief: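 Custom libraries of small protein domains were pooled and measured with high-throughput quantitative proteomics after pH 4 stress. The read-out is the fold change in the amount of each domain that stays soluble after the acid stress, taken as a measure of aggregation propensity. Fold changes are on a log2 scale, and higher values mean more of the domain stayed soluble.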

Sequence | soluble fraction (log2)
HMELPPLQPGQPIDGRVEQQIRAGYYVVSVRGRGYEFQLPESARPGDLLRMVYLNDHPRLTFALLRIDNAN | -0.546
HMSNMWVWSKLSGIQWMDAWEDRFHGNPNTVITRLKTNKTVRVEVYTETEQEALDIKKLFGGSIRKLV | 0.103
HMSTTYLNEGDRITLTDSVNIRTSMSETADRVGLAYQGDVVTVIMSYAEGWTKVSWNGQTGYAKTEYL | -0.0679
HMVEMSNMELVREQYFQNLIYNVGDWVKDSKTEITGEVVKRGTNYLTIVQEDFTLHKVWLEDAESME | -1.46
HMSALTDQQQRVLELVASGLVYKEVAAALSISEPTVKYHMGNILTRLHVKNRAQAIAAARQQGLL | -0.26
HMNNFTQSALDTIDGIGKRRKKLLLNHFGSVKLIENASIEDIKKIDGISDLVANKIYNFFNKN | -0.173
HMGPESKLTDAIKDYIYALYENLKGKSKFRNTIIEEVKKLYGVDISRESIRRVVNQKTDAETTENDDDEKA | 0.197
HMDNPPDRAEIEQMLKDAGLTPEADAMAALSDLARTLDPGDFRQTLEKITLYKLGDSTPIGLDDIAAGAP | -1.18
HMAERLQARIDAPGVRLDKALAETFPTLSRARLQALLADGAVTRDGQTVSNGSAKAQPGLYVVALPPVA | 0.316
HMFDTVFIVRKTSDKPLDGLRTYLNSIGDSLVIGEDDEAFKVHVHTNHPGKVLEEAITYGALQTVKIENMR | -0.585
HMLPPHMEVRAIMILDKRPMALMNIEGEGDGLIVSPGYRFGDGRGRVVSITQTKVVVLWAGTSMEL | -0.383
HMIAWNFDTMKESLSEMERVDYQEFIKAFLSLELSISDRTILNQVYQDYMDEDDLSLISDELRV | -1.4
HMKELLDRIFLHETMRRVSQDATITFSKKVYEVPQKFIGRQVTVQYDPEDLSRVYVKDLNFPEPVMVYPVQ | 0.0825
HMAIWAVFYKNEPFNLKSFNSLTSYPGPKYKKTSFSNPGHALNLAKKLNLTFGTEDFQVVKLTQGTIV | 0.00875
HMEFEYFQLRDHLYNLIMHPDKEKLKKDPDYLKLMSMAFSLLEDQNVGKDILEIAIKSIENFK | -0.674
HMTAVNEHELMNQFKLSLGYANGDDPQTKLSTDEKNDFMRFKEWATAMTKDSKMGKDPDYLKKLAVQWTLK | 0.102
HMSAEDYLERIHELIESKGTAHVADIAQSLGVGKPSVTSMVQKLADEGYLNYEKYRSLTLTDSGRSIA | 0.0599
HMETGKLIKELRLKKGMTQEELADKTEVSSRTIQRIENGEVDPRAYTLQMIARALEVDYSLFME | -0.683
HMEEITLQEQINFIKDMLLNKEKFHLTDVITKKSKIYVVSLFLALLELIRLEEINFRQTQNFSDIIISRI | -0.381
HMQIIETTVGRVLFNEKVPEAAGYINEVLTKKSLRDIIHGILKKTSVPETAAFLDEIKSLGYNFAF | -0.264
HMSRVTVDVNPDVLQWAIDKKGKGDIKNKFPKIDEWLNGISKPTIHQLENFAKYVSVPFGYLLLSKPPVE | 0.00473
HMTVPTEVALELMHATALEDNEQRILYIASFKEKHREHLHATIEVDGQEVTLARYADLVATGAYL | -2.15
HMTEKSTRSVPQEHEGKRLDVAAALLFPVYSRSELARRIDAGYLLLNGKGSTPKTKVHELDLIELLEV | -1.65
HMSALAEELIKKNQAMILTIKPRDTIWGIANRFQSPPSEKFINQIIELNQVDPYRLRIGQDLLIPLN | 0.00792
HMPLNAFDVAGYRLGYGGGYFDRTLAALSPRPLAVGVGFEINRLESIRPEAHDQRLDWIVTENGAFRPA | -0.944

Sequence | soluble fraction (log2)
HMDVLSQYGSRGEEVGKIQTRLKSWGYFSGEVTGYYGSQTTEAVKRFQQKHGLSATGVADRKTLELIGIS | 0.22
HMSFYSVVISQDGSMLVAENRNEIYSNEELLELASEVNEKTGTIGTIGSLMYYKADKGGYTLITFLDNS | -2.05
HMFDMLGDQIKKYRKEKKMSQEELAIPLNVVRQTVSKWENNLSVPDAELLIRLAEVLEISVAELLGT | -0.76
HMQADKYKSYTATDFLKDKDFLRWQLFNGEEDMLFWGRVIEEYPALRSRVEEGIVLYKDNIR | -1.18
HMSRLLRTDAHLQYAAERGLPVTASAYTPVFAGAKQYTGRIESFDAQTIRFADGPAVERKAVARLEAE | 0.138
HMRPTHYSGPSVIAMINNRVWFSDGSRLAPGEHHDDLEVVGLSPPWSAKVRWQGVEFDVGLFE | -0.946
HMQPVLSDAEVNDLKNIAGGERGYNQLMDWAGNNLTAQDAKSYDDVLATGNKAAISFAIKALMGQYEDAN | -0.453
HMENSMDTDWDVSGVDPSQYRLLFSTLGAIAGVKDVGLNPDGLKIIHTPEALPAIKQAFDANNLKLKMRTN | -0.251
HMTVKEYNRAVDEYSDAVWRFIRGNLRDEDRANDIVQDSFEKLWMHVTEIDYSVAKSWLFSTAYNNMIDI | -0.899
HMEETGFYIKLQDQEVVIFHNDQVTPYEYTGIREEVLPESELEKLREGFFVEDEKELYSVLENLS | -0.412
HMSQLSDEQELRDIARGIIEGNPNEAEKYRAGRTGLLGFFVGKLMAETEGKANPRLASRILKELLE | -0.441
HMDPFVILGISKDSSQSEILEAYKTKRAYYQEHVFDEGDQGAQAARMLGQLDDAYQQAMELSHE | 0.139
HMEIVQVIAQNIQDLLDKHKISVSELSGYLGISRQTLTNYLKTTSTIDSVQLVKIADFFNIPAEYLLKDH | -0.659
HMRKEDYLPIGSVINMDDRKFRVDSVDFDKDKVSLQDMALADARMPIFWEEPLTVVRELYEQQDE | -0.899
HMLPVQGEEVAPGLYKFDFPFLADKRVWEKTINAFKAEHPELKVNYIYTGPDELNSKKKTHVLVYVFTES | -0.122
HMTALTTEDLERRFYAKTYEGESAQKRLARLEISVFGELRQGRPESDRLHDLNNAVLEKERAALNAGAVG | -0.0471
HMSDAPLLSIRSLAVAFDGTRVVDGVSFDVARGEVVALVGESGSGKTVTGLSLLDLVPPPGRRVGGEV | -0.025
HMLKIAENIYQRRKEKNITQEELADFMMVTKASVSKWETGQSYPDILLLPKLATFFNVTVDELIGYEPQ | -1.07
HMDASKVKIEDLGLSTRTENALVAASIRTAGGLARKSEMDLLSTDGLGEKGITEIKKALSDLGLELK | 0.246
HMENTGFKDKKGNYIFDGDIVKDILGNIMKVEFKHFKWQLIPLNKTAFNMPMVDWLDLETETLNAEIIGN | -1.69
HMTTVSINTTGIITASTIRASSALYPPLYTTVQRDAGTFSAGAIIFNSTTSKLEFYDGTTWQSLPG | 0.285
HMIDNFFTIRFNYSKINEVIRLLKEFNGEIFNKNYDKNEYIIEFSIPKKDAALLISKLKNITGLTIEQ | -0.538
HMLSVRQRMGELLERLADGQFHRFESLFTVEEGKLGVVVTFLGLLTLAKEQLLDIVQEGPTAPIYVKSLA | 0.0784
HMTHAISKTYAVTGEQLKNGFTLTHTFANGSTRRVDVYPGSRSGKVIAVRNTTDDTTEWIRIVEG | -0.0152
HMGRTVKGVNFVGLRDAGDPVDLAEIYSKEGADELVFLDITATHEKRKTLLDLVTRVAERINIPFTVGGGI | -0.331

Sequence | soluble fraction (log2)
HMSNLENSLNESLSLLKSNKYNEALEILKKIEIEDSRVFFLLGTIYSVMKNINLGEEFLIKASK | -1.32
HMYYDDEELDDYRGKASDAYTAAEVEQFEEVLTTMRPEEVHGWLRSLQLRGVALPDALKDEAYMIVSEQAE | -0.727
HMHPEQTLEKIVDISAELFAKKGYEQTSIQDILDATGLSKGGLYHHFKSKEEILEAVMQKRVQY | -0.647
HMIKRDLAFSEFIAEVKAGQVREVTIKGNSISGNLNDGREFNTYAPNDPNLVKTLTDQGVLIRAIPLE | 0.227
HMPTSLPGIDIDEKNIVSSTGALSFKKVPKKLAIIGGGYIGLEMGSVWSRLGSSVTVIEYLNFITPG | -0.172
HMTKTFDSPEDADNDVLAKTLFQIFGVQSVYLKENFVTITKSNSVGWHTLMEKTGHTLEEHLKF | 0.0576
HMTQNSAITNRVLYMQRTLRQYGYAVPESGNFDRTTRAHAAEFLYNATGLPVRENQSVQEFYRAFQRVQG | 0.203
HMPFSLHGVNEGSRNDNAARIAGYLISKNLNLDFVRIFLHNWNRDNKPPLPQQEIDSVVDNVKKTHDRKN | -0.0731
HMPDLQDTLYRLVPEDGSAIGNQSLREKFLSTAKDASDADFEAARDGLVEQGKLTKGKGRGGSVRRAEP | 0.397
HMNSKMTYSELITSMENKEVESVKISSSGDVASVKLKNSKTEKEVKIPSLDSFMTYTEQYLKTGEITLEE | -0.0537
HMNNTIKFFVSQDDDSTRLDVFLSKKIENLTRSNIKKFINLNNVKINKATINSPSKKVKLYDEIEIKFSS | -1.19
HMNQRTATVTASQLNVRSGPSTAYSIVHVLRQGETVEVIGESDGWYQIRLKDGRVGWSSGQYLNLN | -0.481
HMEETEVPPVTGYEQSKASEVLTGKGLIPDIITVADEETAAGYVIRTDPASGEKVPSGTTVKVYVSSGP | -0.0585
HMKTLLSMNIKNLRKKKNMTLEELAEKVGTSKQTIQRYESGKISNIPSDKIELLAKYLDTTPAKLMGW | 0.187
HMKEFEINSQWKPSLEVYDILSVKGGISRNFIEDSIPEFVLYWRGRGDKSNTWDSKFVQHVKRQWNFYSGL | -2.41
HMNNLELSEEEKSVLTIIEKEGLIELDKLKTKLELSNKKWDKTLKFLTKNKLAKVVKNDNGLFVEL | 0.0993
HMKLGYTVHGNVVTVKAVANGISLYNTIGQKVAESTDGQTVKAPAHGVYILSVQGKSGSRETAKIVI | 0.114
HMRTIGDSVYEKIKYDIVHLTLKPGEKLSEASLAEKYGISKAPIRVALRKLQEEGLIVIRPQSGSIVSP | 0.0262
HMSQIDLQIGHKIKSKRRKLGISQADMAKKLYISPSYLNLIESGKRKINVDLLLKLSNELGIEMSDIS | 0.33
HMVKETNYSFFLKQIDAGTVEQVQIEDTEIKFKVSTADGKEQVYSTVRVEDPDLVDRLYSKGNIDFTGN | -1.3
HMLDEKAVRQYLLNTLENSEIKMDRQAIDLFLRLTDLDLSKMMRELQKILLYGQEQEVITVKEIEQ | -1.17
HMKVSDLIGMLGRVTGELAPTGIVLVGNKTWTAISEDASVIASGEQVQVRSVAGLILTVSHQVD | -0.954
HMNPFLELTEREMDVLRLIAIGRNNQEIASELVISEKTVKTHITNIFSKLHFKDRTQAAAYAWQSGIVR | -1.07
HMLDLPEISARIMEVFETKDRATISELSKLTGTNINTIKKHLSSLVENNYLIKHGKTRGAWYTKST | -0.271
HMDTPPGLSPEEQAIIDIITTRGDATINELTASIDIPTPRLMGMLVDMEFRSLIAAIPGGRYRI | -1.42
